The source of these data is US20230321209A1.

This experiment addresses human Adenovirus capsid. The experiment is described as follows: SPR, peptide on adenovirus capsid (FIGS. 13A-13B).

KKKKKKKVTLVFLFVAAIFYLITPVHVMSK [R1AB_KVTLV SARS-CoV2 peptide with 6K poly-lysine tail] registered a list of priority (rank by SPR binding, high binders listed first) of 3 rank.
The result for KKKKKKKKKGLEAPFLYLYALVYFLQSINFV [AP3A_GLEAP SARS-CoV2 peptide with 9K poly-lysine tail] reads 2 rank; that for KKKKKKLPKEITVATSRTLSYYKLGA [VME1_LPKEI SARS-CoV2 peptide with 6K poly-lysine tail], 6 rank; that for KKKKKKALALLLLDRLNQLESKMSGK [NCAP_ALALL SARS-CoV2 peptide with 6K poly-lysine tail], 9 rank.
The molecule KKKKKKKKKGLVAEWFLAYILFTRFFYVL [R1AB_GLVAE SARS-CoV2 peptide with 9K poly-lysine tail] gave a list of priority (rank by SPR binding, high binders listed first) of 1 rank.
The molecule KKKKKKAQFAPSASAFFGMSRIGMEV [NCAP_AQFAP SARS-CoV2 peptide with 6K poly-lysine tail] yielded a list of priority (rank by SPR binding, high binders listed first) of 7 rank.
For the molecule KKKKKKKKKKLIFLWLLWPVTLACFVLAAV [VME1_KLIFL SARS-CoV2 peptide with 9K poly-lysine tail], the list of priority (rank by SPR binding, high binders listed first) was 4 rank.
